These results are taken from article PMC9805127.

Substrate in the series: O=C(O)C(=O)O
Put plainly: purified protein. The conditions noted are these: pH 4.0 (authors' preferred pH; also measured at pH 3 and 5), 100 mM buffer, air-saturated, 25 °C, 0.025 μM HvOXO, 0.125 μM PaDa-I as coupling enzyme.

Broadly, the Km is the substrate concentration at which the rate is half of its maximum. For orientation: kcat means the maximal rate divided by the concentration of active sites. The kcat/Km is the turnover number divided by the Michaelis constant.

B1: HvOXO (Hordeum vulgare) (protein)
chain: SDPDPLQDFCVADLDGKAVSVNGHTCKPMSEAGDDFLFSSKLTKAGNTSTPNGSAVTELDVAEWPGTNTLGVSMNRVDFAPGGTNPPHIHPRATEIGMVMKGELLVGILGSLDSGNKLYSRVVRAGETFVIPRGLMHFQFNVGKTEAYMVVSFNSQNPGIVFVPLTLFGSDPPIPTPVLTKALRVEAGVVELLKSKFAGGS
Turning to B1, the Km was determined as 730 ± 90 µM, the turnover number (kcat) was determined as 1.52 s⁻¹ and the kcat/Km amounted to 2080 M⁻¹ s⁻¹.
